Patent US20140031528A1 (NATIONAL UNIVERSITY CORPORATION UNIVERSITY OF TOYAMA, published 2014)

Target: human insulin (human, UniProt P01308 25-54; P01308 90-110)
Experiment: ELISA, recombinant antibodies from 293FT culture
Method: The full lengths of the guinea pig γ chain, κ chain, and λ chain gene expression units amplified in the above experiments were genetically introduced into 293FT cells and the cells were cultured for two days to bring about the secretion of recombinant guinea pig antibodies in the cell culture. The ability to bind human insulin of the recombinant guinea pig monoclonal antibodies obtained from the antigen specific and nonspecific plasma cells was examined by the ELISA method (FIG. 9).

Sequence of human insulin (P01308 25-54 limits assumed, chain 1 of 2): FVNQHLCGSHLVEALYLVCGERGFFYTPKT
Sequence of human insulin (P01308 90-110 limits assumed, chain 2 of 2): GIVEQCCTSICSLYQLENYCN

- binding result: binds
B1: guinea pig monoclonal antibody to human insulin, Sample No. 5 (antibody, V domains shown)
VH: QVQLQESGPGLVKPSETLSLTCKVSGFSLMDYSVSWIRQAPGEGLEWIGVIWSSGSTDYNSTFKSRVGMSRDTSKSQVSITLRSLSSEDTAVYYCARAQYFDVWGAGTLVTVSS
VL: QIVLTQSPASLAASPGQKVTITCTASSSVNNNFFHWYQQKPGASPTLLIYRTSRLASGVPARFSGSGSGTSYSLTISSMEGEDVATYYCLQSNSYTFGAGTRLEIK
notes: Recombinant guinea pig IgG (γ/κ) secreted by 293FT cells
